# In patent US20100137208A1, “INTRATUMORALLY ADMINISTERED LACTOFERRIN IN THE TREATMENT OF MALIGNANTNEOPLASMS AND OTHER HYPERPROLIFERATIVE DISEASES” (priority 2002, published 2010):
# Experiments:
# [1] = test system: Human squamous cell carcinoma (O12); test: Inhibition of tumor growth by rhLF in O12 tumor model in mice; format: in vivo, athymic nude mice
# Experimental: Human squamous cell carcinoma (O12) was used. The cells were injected into the right flank of athymic nude mice. rhLF was administered either intratumorally (49 animals, 7 doses ranging from 0.05 μg to 125 μg per dose), intravenously (7 animals, 125 μg/dose) or orally (7 animals 20 mg/dose). Control animals were treated with only the vehicle; no rhLF was administered to the control animals. rhLF was administered twice a day for either five days (intravenous group) or eight days (all other groups) starting 11 days after inoculation with tumor cells to allow formation of established tumors.
# The efficacy of treatment was evaluated by measuring the solid tumor size during and at the end of the experiment; the body weights were also determined at the time of tumor measurements.
# [2] = test system: IL-18; test: IL-18 levels in small intestine and serum after oral rhLF or bLF (ELISA); format: in vivo, mice; details: for IL-18 level, Intestinal Extract / IL-18 level, Serum: 24 h after last dose
# Experimental: Recombinant human lactoferrin and bovine lactoferrin were orally administered to mice, and the production of IL-18 in the small intestine was measured.
# Mice were treated for three days daily with 65 mg/kg/day of rhLF, 300 mg/kg/day of rhLF or 300 mg/kg/day of bLF. For a control, mice were only administered the pharmaceutical carrier. Twenty-four hours following administration of the LF or control for 3 days, animals were weighed and blood and serum were collected. Serum was used for cytokine ELISA assays.
# Also, at these time points, animals were sacrificed and the small intestinal tissue was removed for further analysis. Small intestinal epithelium was homogenized using a lysis buffer consisting of PBS, 1% Nonidet P-40, 0.5% sodium deoxycholate, and 0.1% sodium dodecyl sulphate containing 10 μg/ml PhenylMetheylsulfonyl fluoride. Homogenate was centrifuged at 15,000 rpm for 10 minutes and the supernatant stored at −80 C till it was tested for IL-18 levels.
# [3] = test system: murine squamous carcinoma cell line (SCCVII); test: SCCVII floor-of-mouth tumor growth, oral rhLF and/or cisplatin; format: in vivo, C3H mice; details: rhLF 200 mg/Kg oral once daily days 5-12, no cisplatin
# Experimental: A murine squamous carcinoma cell line (SCCVII) was injected into the floor of the mouth through the neck skin of immunocompetent C3H mice (Day 0). […] Tumors were measured in three dimensions with calipers.
# Tumor-bearing mice were randomized into a control group and seven groups receiving rhLF and/or cisplatin. RhLF (4 mg; 200 mg/Kg) was administered once daily by oral gavage for 8 days on days 5 through 12. Cisplatin was administered as a single dose of 5 mg/Kg given intraperitoneally either at the start of rhLF (day 5), in the middle (day 8) or at the end (day 12) of rhLF therapy. Animals were sacrificed on day 12 post-implantation and the residual tumor masses were measured and processed for later additional analyses.
# A murine squamous carcinoma cell line (SCCVII) was injected into the floor of the mouth through the neck skin of immunocompetent C3H mice (Day 0) as described in Example 6. On Day 5 days after initial implantation, tumors were measured for the baseline, then treated with either cisplatin (Day 8, i.p., 5 mg/kg) alone or cisplatin plus three doses of oral rhLF (daily by gavage for 7-8 days on days 5 through 11/12). Animals were sacrificed on Day 11/12 and tumors measured.
# [4] = test system: murine squamous carcinoma cell line (SCCVII); test: SCCVII floor-of-mouth tumor growth, oral rhLF and/or radiotherapy; format: in vivo, C3H mice
# Experimental: A murine squamous carcinoma cell line (SCCVII) was injected into the floor of mouth through the neck skin of immunocompetent C3H mice (Day 0). […] Tumors were measured in three dimensions with calipers.
# Tumor-bearing mice were randomized into six groups receiving rhLF (200 mg/Kg) and/or radiotherapy as described below. RhLF (4 mg; 200 mg/kg) was administered by oral gavage once daily for 8 days on days 5 through 12. Radiotherapy was administered as single dose of 2 Gray given at the beginning (day 5) or at during (day 8) rhLF-therapy. Animals were sacrificed on day 14 post-treatment and the residual tumor masses were measured and processed for later additional analyses.
# [5] = test system: metastatic cancer; test: Oral rhLF in human patients with metastatic cancer, tumor size by CT; format: in vivo
# Experimental: Recombinant human lactoferrin was orally administered to human patients with a range of metastatic cancer types that had failed standard chemotherapy in two different studies conducted in multiple centers in four countries (Argentina, Brazil, Chile, U.S.) RhLF was administered at doses of 1.5 to 9 grams daily in two divided doses in cycles of 14 each with a 14 day gap.
# Tumor size progression was monitored through CT scans and tumor markers where available. CT scans were performed at baseline and after each 8-week period once treatment was initiated, and also compared with a pre-baseline scan conducted prior to enrollment in the study. Tumor markers are measured every 4 weeks. Blood samples were collected to measure subclasses of circulating lymphocytes and NK cell activity. Plasma, serum and blood cell extract samples were collected to measure circulating IL-18, IL-1, IL-2, and IL-4, IL-5, IL-10, IL-12 and IFN-γ.
# [6] = test system: circulating lymphocytes; test: Circulating lymphocytes following intratumoral rhLF in tumor-bearing mice; format: in vivo, C3H/HeJ mice
# Experimental: Normal C3H/HeJ mice were implanted with one of two mouse tumors following the methodology described in Example 17. Tumors used were SCCVII and RIF mouse tumor cell lines. Following establishment of the tumors in the mice, tumors were injected intratumorally daily for 4 days with 250 or 500 μg rhLF per dose or with vehicle control. Twenty four hours following the last intratumoral injection, animals were sacrificed and the blood examined for lymphocyte populations. The number of circulating lymphocytes were increased by 34% to 56% relative to the placebo treated control animals (Table 14).
# [7] = oral 65 mg/kg/day for three days
# [8] = oral 65 mg/kg/day rhLF versus 300 mg/kg bLF
# [9] = oral 300 mg/kg/day for three days
# [10] = oral 300 mg/kg/day rhLF versus 300 mg/kg bLF
# [11] = blood, 24 h after 4 daily intratumoral doses of 250 or 500 μg, SCCVII or RIF tumors
molecule,measurement,setting,value
"rhLF: recombinant human lactoferrin, a single chain metal binding glycoprotein (protein, UniProt P02788 20-710, looked up) Lactotransferrin: GRRRSVQWCAVSQPEATKCFQWQRNMRKVRGPPVSCIKRDSPIQCIQAIAENRADAVTLDGGFIYEAGLAPYKLRPVAAEVYGTERQPRTHYYAVAVVKKGGSFQLNELQGLKSCHTGLRRTAGWNVPIGTLRPFLNWTGPPEPIEAAVARFFSASCVPGADKGQFPNLCRLCAGTGENKCAFSSQEPYFSYSGAFKCLRDGAGDVAFIRESTVFEDLSDEAERDEYELLCPDNTRKPVDKFKDCHLARVPSHAVVARSVNGKEDAIWNLLRQAQEKFGKDKSPKFQLFGSPSGQKDLLFKDSAIGFSRVPPRIDSGLYLGSGYFTAIQNLRKSEEEVAARRARVVWCAVGEQELRKCNQWSGLSEGSVTCSSASTTEDCIALVLKGEADAMSLDGGYVYTAGKCGLVPVLAENYKSQQSSDPDPNCVDRPVEGYLAVAVVRRSDTSLTWNSVKGKKSCHTAVDRTAGWNIPMGLLFNQTGSCKFDEYFSQSCAPGSDPRSNLCALCIGDEQGENKCVPNSNERYYGYTGAFRCLAENAGDVAFVKDVTVLQNTDGNNNEAWAKDLKLADFALLCLDGKRKPVTEARSCHLAMAPNHAVVSRMDKVERLKQVLLHQQAKFGRNGSDCPDKFCLFQSETKNLLFNDNTECLARLHGKTTYEKYLGPQYVAGITNLKKCSTSPLLEACEFLRK",Inhibition Relative to Placebo (tumor growth),"[1]; Intratumoral, 0.05 μg to 125 μg per dose twice a day for eight days, N = 49, Day 19",28%
same,Inhibition Relative to Placebo (tumor growth),"[1]; Intratumoral, 0.05 μg to 125 μg per dose twice a day for eight days, N = 49, Day 28",46%
same,Inhibition Relative to Placebo (tumor growth),"[1]; Intravenous, 125 μg/dose twice a day for five days, N = 7, Day 19",55%
same,Inhibition Relative to Placebo (tumor growth),"[1]; Intravenous, 125 μg/dose twice a day for five days, N = 7, Day 28",65%
same,Inhibition Relative to Placebo (tumor growth),"[1]; Oral, 20 mg/dose twice a day for eight days, N = 7, Day 19",76%
same,Inhibition Relative to Placebo (tumor growth),"[1]; Oral, 20 mg/dose twice a day for eight days, N = 7, Day 28",80%
same,reduced rates of tumor growth relative to the control,"[1]; across intratumoral, intravenous and oral routes",46% to 80
same,IL-18 Intestinal Extract % Increase Over Control,[2]; [7],725%
same,IL-18 Serum % Increase Over Control,[2]; [7],84%
same,"IL-18 level, Intestinal Extract",[2]; [7],"7,879 pg"
same,"IL-18 level, Serum",[2]; [7],259 pg
same,IL-18 Intestinal Extract % Increase Over Blf,[2]; [8],75%
same,IL-18 Serum % Increase Over Blf,[2]; [8],94%
same,IL-18 Intestinal Extract % Increase Over Control,[2]; [9],775%
same,IL-18 Serum % Increase Over Control,[2]; [9],132%
same,"IL-18 level, Intestinal Extract",[2]; [9],"8,350 pg"
same,"IL-18 level, Serum",[2]; [9],328 pg
same,IL-18 Intestinal Extract % Increase Over Blf,[2]; [10],85%
same,IL-18 Serum % Increase Over Blf,[2]; [10],145%
same,amounts of IL-18 in both the serum and in the intestinal extract,"[2]; oral, both doses (65 and 300 mg/kg/day)",significantly enhanced
same,TGI (%) Relative to Placebo,[3],33%
same,increase in TGI over monotherapy with radiation,[4]; both rhLF and radiation,15%
same,increase in TGI over monotherapy with rhLF,[4]; both rhLF and radiation,28%
same,Inhibition Relative to Placebo,[4]; rhLF 200 mg/kg oral days 5-12 plus 2 Gray on day 5,68%
same,Inhibition Relative to Placebo,[4]; rhLF 200 mg/kg oral days 5-12 plus 2 Gray on day 8,66%
same,Inhibition Relative to Placebo,"[4]; rhLF 200 mg/kg oral days 5-12 plus 2 Gray, both radiation schedules pooled",67%
same,Inhibition Relative to Placebo,"[4]; rhLF 200 mg/kg oral once daily days 5-12, no radiation",54%
same,Post Treatment 1 % Growth of tumor,"[5]; Patient # 007, Lung, 7.5 weeks, pretreatment 160% (5.5 weeks)",13%
same,Post Treatment 2 % Growth of tumor,"[5]; Patient # 007, Lung, 8.5 weeks, pretreatment 160% (5.5 weeks)",12%
same,Post Treatment 2 % Growth of tumor,"[5]; Patient # 102, Ovarian, 8.5 weeks, pretreatment 30% (21 weeks)",−7%
same,Post Treatment 1 % Growth of tumor,"[5]; Patient # 102, Ovarian, 10.5 weeks, pretreatment 30% (21 weeks)",−5%
same,Post Treatment 2 % Growth of tumor,"[5]; Patient # 104, Gastric, 7 weeks, pretreatment 25% (5.5 weeks)",−5%
same,Post Treatment 1 % Growth of tumor,"[5]; Patient # 104, Gastric, 10 weeks, pretreatment 25% (5.5 weeks)",10%
same,Post Treatment 1 % Growth of tumor,"[5]; Patient # 106, Melanoma, 11 weeks, pretreatment 24% (19 weeks)",−18%
same,Post Treatment 2 % Growth of tumor,"[5]; Patient # 204, Breast, 6.5 weeks, pretreatment 40% (8 weeks)",0%
same,Post Treatment 1 % Growth of tumor,"[5]; Patient # 204, Breast, 10 weeks, pretreatment 40% (8 weeks)",0%
same,patients with stable disease by the RECIST criteria,"[5]; oral 1.5 to 9 grams daily, nine of nineteen evaluable patients, first post-treatment scan",47%
same,increase in number of circulating lymphocytes relative to placebo,"[6]; across CD3+, CD4+, CD8+ populations",34% to 56
same,Number of Cells CD3+,[6]; [11],3291
same,Number of Cells CD4+,[6]; [11],2621
same,Number of Cells CD8+,[6]; [11],1054
same,"Increase with rhLF, CD3+ cells",[6]; relative to placebo,56%
same,"Increase with rhLF, CD4+ cells",[6]; relative to placebo,46%
same,"Increase with rhLF, CD8+ cells",[6]; relative to placebo,34%
